Experimental data published in patent US20060259987A1.
Read-outs that look alike come from different tables or passages of the source. Values belong to the substance of their own block, whether it stands above or below them.

Key:
Test in all cases: cell-based or functional assay
factor Xa (human) = factor Xa (human) (UniProt P00742)
[1] = target: human neutrophil cathepsin G (human) (UniProt P08311)
[2] = target: human neutrophil elastase (human) (UniProt P08246)
thrombin (human) = thrombin (human) (UniProt P00734)

human neutrophil elastase (human), sequence (P08246 30-247 limits assumed): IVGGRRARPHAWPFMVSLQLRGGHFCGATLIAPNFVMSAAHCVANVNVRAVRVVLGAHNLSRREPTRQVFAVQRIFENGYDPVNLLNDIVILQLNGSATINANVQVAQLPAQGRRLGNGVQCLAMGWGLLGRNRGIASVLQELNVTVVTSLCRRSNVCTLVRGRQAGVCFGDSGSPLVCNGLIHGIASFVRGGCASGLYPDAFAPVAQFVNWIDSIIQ
human neutrophil cathepsin G (human), sequence (P08311 21-244 limits assumed): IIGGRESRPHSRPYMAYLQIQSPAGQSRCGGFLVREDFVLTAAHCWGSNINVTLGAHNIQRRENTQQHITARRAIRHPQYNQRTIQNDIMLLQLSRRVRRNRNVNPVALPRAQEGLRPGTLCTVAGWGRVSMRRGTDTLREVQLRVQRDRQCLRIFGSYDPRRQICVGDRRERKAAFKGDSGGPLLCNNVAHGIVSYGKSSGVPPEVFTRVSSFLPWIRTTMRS

IC50 fXa/UFH; HCA #4 (factor Xa (human)): 13 nM | rsd. Xa catG; CA #12; stg1 conc 200 (factor Xa (human)): 1% | rsd. Xa catG; CA #17; stg1 conc 3 (factor Xa (human)): 77% | rsd. Xa catG; CA #17; stg1 conc 7 (factor Xa (human)): 12% | rsd. Xa catG; CA #17; stg1 conc 23 (factor Xa (human)): -7% | rsd. Xa hne; CA #14; stg1 conc 200 (factor Xa (human)): 101% | rsd. Xa hne; CA #17; stg1 conc 23 (factor Xa (human)): 98% | rsd. Xa no add; CA #17; stg1 conc 1 (factor Xa (human)): 90% | rsd. Xa no add; CA #17; stg1 conc 3 (factor Xa (human)): 75% | rsd. Xa no add; CA #17; stg1 conc 23 (factor Xa (human)): 1% | IC50 fXa/UFH; HCA #4 (factor Xa (human); record 2): 13 nM | rsd IIa, catG (CA #14, stg 1 conc 200) [1]: 1% | halflife, min (HNE/hep) [2]: 2.9 min | rsd IIa, HNE (CA #14, stg 1 conc 200) [2]: 100% | rsd Xa, HNE (CA #14, stg 1 conc 200) [2]: 101%
Substance: plasma-derived ATIII (from UniProt P01008 33-464)

IC50 fXa/UFH; HCA #4 (factor Xa (human)): 12 nM | rsd. Xa catG; CA #6; stg1 conc 200 (% of no-ATIII control) (factor Xa (human)): 0 | rsd. Xa catG; CA #13; stg1 conc 200 (% of no-ATIII control) (factor Xa (human)): 1 | rsd. Xa hne; CA #6; stg1 conc 200 (% of no-ATIII control) (factor Xa (human)): 81 | rsd. Xa hne; CA #13; stg1 conc 200 (% of no-ATIII control) (factor Xa (human)): 87 | rsd. Xa no add; CA #6; stg1 conc 200 (% of no-ATIII control) (factor Xa (human)): 0 | rsd. Xa no add; CA #13; stg1 conc 200 (% of no-ATIII control) (factor Xa (human)): 2 | IC50 IIa/UFH; HCA #4 (thrombin (human)): 13 nM | rsd. IIa catG; CA #6; stg1 conc 200 (% of no-ATIII control) (thrombin (human)): 0 | rsd. IIa catG; CA #13; stg1 conc 200 (% of no-ATIII control) (thrombin (human)): 1 | rsd. IIa hne; CA #6; stg1 conc 200 (% of no-ATIII control) (thrombin (human)): 81 | rsd. IIa hne; CA #13; stg1 conc 200 (% of no-ATIII control) (thrombin (human)): 89 | rsd. IIa no add; CA #6; stg1 conc 200 (% of no-ATIII control) (thrombin (human)): 0 | rsd. IIa no add; CA #13; stg1 conc 200 (% of no-ATIII control) (thrombin (human)): 4
Substance: ATIII S137A (from UniProt P01008 33-464)

IC50 fXa/UFH; HCA #4 (factor Xa (human)): 13 nM | rsd. Xa catG; CA #12; stg1 conc 200 (% of no-ATIII control) (factor Xa (human)): 1 | rsd. Xa catG; CA #17; stg1 conc 3 (% of no-ATIII control) (factor Xa (human)): 77 | rsd. Xa catG; CA #17; stg1 conc 7 (% of no-ATIII control) (factor Xa (human)): 12 | rsd. Xa catG; CA #17; stg1 conc 23 (% of no-ATIII control) (factor Xa (human)): -7 | rsd. Xa hne; CA #14; stg1 conc 200 (% of no-ATIII control) (factor Xa (human)): 101 | rsd. Xa hne; CA #17; stg1 conc 23 (% of no-ATIII control) (factor Xa (human)): 98 | rsd. Xa no add; CA #17; stg1 conc 1 (% of no-ATIII control) (factor Xa (human)): 90 | rsd. Xa no add; CA #17; stg1 conc 3 (% of no-ATIII control) (factor Xa (human)): 75 | rsd. Xa no add; CA #17; stg1 conc 23 (% of no-ATIII control) (factor Xa (human)): 1
Substance: human plasma-derived ATIII (from UniProt P01008 33-464)

IC50 fXa/UFH; HCA #2 (factor Xa (human)): 17 nM | rsd. Xa catG; CA #8; stg1 conc 200 (factor Xa (human)): 1% | rsd. Xa catG; CA #8; stg1 conc 200 (% of no-ATIII control) (factor Xa (human)): 1 | rsd. Xa catG; CA #9; stg1 conc 200 (factor Xa (human)): 1% | rsd. Xa catG; CA #9; stg1 conc 200 (% of no-ATIII control) (factor Xa (human)): 1 | rsd. Xa hne; CA #8; stg1 conc 200 (factor Xa (human)): 90% | rsd. Xa hne; CA #8; stg1 conc 200 (% of no-ATIII control) (factor Xa (human)): 90 | rsd. Xa hne; CA #9; stg1 conc 200 (factor Xa (human)): 106% | rsd. Xa hne; CA #9; stg1 conc 200 (% of no-ATIII control) (factor Xa (human)): 106 | rsd. Xa no add; CA #8; stg1 conc 200 (factor Xa (human)): 1% | rsd. Xa no add; CA #8; stg1 conc 200 (% of no-ATIII control) (factor Xa (human)): 1 | rsd. Xa no add; CA #9; stg1 conc 200 (% of no-ATIII control) (factor Xa (human)): 2 | IC50 fXa/UFH; HCA #2 (factor Xa (human); record 2): 17 nM | rsd. IIa catG; CA #8; stg1 conc 200 (thrombin (human)): 0% | rsd. IIa catG; CA #8; stg1 conc 200 (% of no-ATIII control) (thrombin (human)): 0 | rsd. IIa catG; CA #9; stg1 conc 200 (thrombin (human)): 2% | rsd. IIa catG; CA #9; stg1 conc 200 (% of no-ATIII control) (thrombin (human)): 2 | rsd. IIa hne; CA #8; stg1 conc 200 (thrombin (human)): 90% | rsd. IIa hne; CA #8; stg1 conc 200 (% of no-ATIII control) (thrombin (human)): 90 | rsd. IIa hne; CA #9; stg1 conc 200 (thrombin (human)): 100% | rsd. IIa hne; CA #9; stg1 conc 200 (% of no-ATIII control) (thrombin (human)): 100 | rsd. IIa no add; CA #8; stg1 conc 200 (thrombin (human)): 1% | rsd. IIa no add; CA #8; stg1 conc 200 (% of no-ATIII control) (thrombin (human)): 1 | rsd. IIa no add; CA #9; stg1 conc 200 (thrombin (human)): 2% | rsd. IIa no add; CA #9; stg1 conc 200 (% of no-ATIII control) (thrombin (human)): 2
Substance: ATIII N135A (from UniProt P01008 33-464)
